Results from doi:10.1101/2020.01.27.921122 (bioRxiv, 2020).
“And” between values parts separate entries of the source, which are not always exact repeats. Identical values can stand only once.

Target: T1, recombinant human Apaf-1(1-591AA)-His (human, UniProt O14727 1-591)
T1 sequence (looked up): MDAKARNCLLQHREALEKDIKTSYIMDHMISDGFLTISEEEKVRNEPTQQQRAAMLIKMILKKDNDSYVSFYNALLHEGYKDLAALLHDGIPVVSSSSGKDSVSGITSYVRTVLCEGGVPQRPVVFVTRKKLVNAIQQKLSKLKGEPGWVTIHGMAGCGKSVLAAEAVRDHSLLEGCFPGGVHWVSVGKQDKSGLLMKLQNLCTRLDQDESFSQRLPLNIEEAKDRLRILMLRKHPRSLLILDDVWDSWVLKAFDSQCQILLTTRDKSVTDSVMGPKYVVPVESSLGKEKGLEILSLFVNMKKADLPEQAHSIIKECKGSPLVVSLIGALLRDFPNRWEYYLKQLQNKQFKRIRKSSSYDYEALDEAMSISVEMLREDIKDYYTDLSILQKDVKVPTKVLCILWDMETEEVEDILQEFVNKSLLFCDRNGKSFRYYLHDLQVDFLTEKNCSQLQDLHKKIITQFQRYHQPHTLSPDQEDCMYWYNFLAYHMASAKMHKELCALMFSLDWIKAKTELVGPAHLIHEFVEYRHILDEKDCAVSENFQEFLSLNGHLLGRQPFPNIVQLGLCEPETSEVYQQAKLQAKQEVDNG
Experiment: SEC

stoichiometry N: 1.8 molecules of caspase-4 (CARD) for each Apaf (1-591) heptamer and 2.1 molecules of caspase-4 (CARD) for each Apaf (1-591) heptamer
B1: recombinant human caspase-4 (CARD)-Fc-HA (Fc fusion, UniProt P49662 1-91, looked up)
chain: MAEGNHRKKPLKVLESLGKDFLTGVLDNLVEQNVLNWKEEEKKKYYDAKTEDKVRVMADSMQEKQRMAGQMLLQTFFNIDQISPNKKAHPN
